Test results published in PMC6021390, “A promiscuous cytochrome P450 aromatic O-demethylase for lignin bioconversion” (Nature Communications, 2018).
“Also recorded” adds a separate entry of the source. Read-outs that look alike come from different tables or passages of the source.

Key:
[1] = molecular target: T1, GcoA (Amycolatopsis sp., UniProt P0DPQ7); test: Determination of substrate dissociation constants with GcoA (UV/vis spectral shift titration; fluorescence quenching for vanillin); format: binding
T1 construct: GST (N, cleaved yes); made in house; host or cells: E. coli Rosetta 2 (DE3)
T1 sequence (P0DPQ7 1-407): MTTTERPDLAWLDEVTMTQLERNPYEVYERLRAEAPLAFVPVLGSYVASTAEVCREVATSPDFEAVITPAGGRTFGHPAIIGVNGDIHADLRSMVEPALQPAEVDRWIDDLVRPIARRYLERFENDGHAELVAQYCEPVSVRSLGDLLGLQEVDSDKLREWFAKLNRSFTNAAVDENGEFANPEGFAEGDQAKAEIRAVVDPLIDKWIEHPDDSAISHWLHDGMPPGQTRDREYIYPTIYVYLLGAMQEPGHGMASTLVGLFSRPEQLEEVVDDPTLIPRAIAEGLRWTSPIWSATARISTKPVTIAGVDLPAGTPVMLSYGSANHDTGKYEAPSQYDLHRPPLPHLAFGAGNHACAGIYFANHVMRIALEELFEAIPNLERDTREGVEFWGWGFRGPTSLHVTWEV
Method: A total of 0–60 µM of substrate analogs, in 0.25 or 0.5 µM aliquots, were titrated into a cuvette containing 1–6 µM GcoA in 25 mM HEPES, 50 mM NaCl, pH 7.5. The spectrum after each substrate addition was recorded, beginning with no substrate bound. The solution reached equilibrium before the next addition. A difference spectrum was made to illustrate the shift from a low-spin aquo-heme complex to the high-spin substrate-bound complex (spectral shift from 417 nm to 388 nm). […] The absorbance at 388 nm was plotted as a function of [substrate], yielding a quadratic curve that was fit to Eq. (7) to determine the KD.7 ΔAbsobs=ΔAbsmax/2EtL0+Et+KD-L0+Et+KD^2-4Et*L0. Where L0, Et, KD, and ΔAbsmax are the ligand concentrations, total protein (subunit) concentration, the equilibrium dissociation constant, and the maximum Abs388–417 nm, respectively. Reported values are the average of 2 or more measurements.
Since the UV/vis spectra of vanillin and heme overlap, fluorescence quenching was monitored to determine the KD. […] Fluorescence emission intensity was followed upon titration of vanillin (0–350 µM) after equilibrium had been established. The % fluorescence quenched, Eq. (8), was plotted as a function of vanillin and fit to Eq. (7) above, replacing ΔAbsmax with ΔFluorescencemax.8 %Fquenched=Fmax-Fintensity/Fmax×100%.

[2] = molecular target: T2, GcoAB (Amycolatopsis sp., UniProt P0DPQ7); details: for substrate classification with GcoAB: coupling of NADH consumption to demethylation; for binding or catalytic interaction with GcoA: screen of ten O-methylated aromatic compounds
T2 sequence (P0DPQ7 1-407): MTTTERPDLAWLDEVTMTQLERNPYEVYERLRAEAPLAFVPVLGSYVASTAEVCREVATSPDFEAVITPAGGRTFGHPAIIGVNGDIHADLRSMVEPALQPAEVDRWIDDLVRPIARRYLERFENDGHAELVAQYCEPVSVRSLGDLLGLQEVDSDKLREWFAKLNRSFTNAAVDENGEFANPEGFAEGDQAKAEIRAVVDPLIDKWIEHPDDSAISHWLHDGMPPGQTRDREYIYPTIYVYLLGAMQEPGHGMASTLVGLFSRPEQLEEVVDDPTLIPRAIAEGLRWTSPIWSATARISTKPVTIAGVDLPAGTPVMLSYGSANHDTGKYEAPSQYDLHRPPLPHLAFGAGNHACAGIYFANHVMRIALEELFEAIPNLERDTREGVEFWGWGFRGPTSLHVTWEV
T2 sequence (P0DPQ8 1-334 partner): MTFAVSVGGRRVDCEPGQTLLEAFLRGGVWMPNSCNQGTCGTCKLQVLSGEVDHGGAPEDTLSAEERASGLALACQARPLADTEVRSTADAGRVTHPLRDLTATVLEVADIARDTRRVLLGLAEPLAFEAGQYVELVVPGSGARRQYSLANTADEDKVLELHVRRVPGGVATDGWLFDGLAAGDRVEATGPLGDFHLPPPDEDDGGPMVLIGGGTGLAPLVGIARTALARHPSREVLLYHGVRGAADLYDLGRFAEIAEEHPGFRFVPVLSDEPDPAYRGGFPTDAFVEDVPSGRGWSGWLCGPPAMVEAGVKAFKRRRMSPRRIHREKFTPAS
Method: The demethylation of guaiacol and substrate analogs was continuously monitored under steady-state conditions. […] A total of 100 µg/mL catalase was added to each reaction to capture any H2O2 formed during the uncoupled reaction. […] A total of 20–300 µM guaiacol (preferred substrate) or an alternate substrate from a 2.5 mM stock dissolved in DMSO was added and the reaction was monitored via measurement of UV/vis spectra for several minutes. […] A plot of vi vs [guaiacol] was fit to Eq. (2) to obtain kcat, KM, and kcat/KM. For specific activity determination, the above method was used but with saturating (300 µM) guaiacol. […] Reported values are the average of ≥3 measurements and reported errors are standard deviations.
Reactions with vanillin were performed in the same manner described above.

[3] = molecular target: T2, GcoAB; test: HPLC quantification of demethylated aromatic product versus NADH consumed; format: biochemical, Amycolatopsis sp. ATCC 39116; design: GST (N, cleaved yes); made in house; host or cells: E. coli Rosetta 2 (DE3); details: saturating substrate, 300 μM NADH, 0.2 μM GcoAB
Method: Analyte analysis of samples was performed on an Agilent 1200 LC system (Agilent Technologies, Santa Clara, CA) equipped with a G1315A diode array detector (DAD). Each sample and standard was injected at a volume of 10 μL onto a Phenomenex Luna C18(2) column 5 μm, 4.6 × 150 mm column (Phenomenex, Torrance, CA). The column temperature was maintained at 30 °C and the buffers used to separate the analytes of interest was 0.05% acetic acid in water (A)/ acetonitrile (B). The separation was carried out using a gradient program of: (A) = 99% and (B) = 1% at time t = 0; (A) = 99% and (B) = 1% at time t = 5, (A) = 50% and (B) = 50% at t = 35 min; (A) = 1% and (B) = 99% at t = 35.01 min; (A) = 99% and (B) = 1% at t = 37.01 min; (A) = 99% and (B) = 1% at t = 47.00 min. The flow rate was held constant at 0.6 mL min^−1 resulting in a run time of 47 min. Calibration curve concentration for each analyte varied between the ranges of 2.5–200 µg L^−1. A DAD wavelength of 225 nm was used for analysis of the analytes of interest. […] A minimum of 3–5 calibration levels was used with an r^2 coefficient of 0.995 or better for each analyte and a check calibration standard (CCS) was analyzed every 10 samples to insure the integrity of the initial calibration.

[4] = molecular target: T2, GcoAB; test: Aldehyde product determination (tryptophan assay for formaldehyde, dehydrogenase assay for acetaldehyde) versus NADH consumed; format: biochemical, Amycolatopsis sp. ATCC 39116; design: GST (N, cleaved yes); made in house; host or cells: E. coli Rosetta 2 (DE3); details: formaldehyde (acetaldehyde for guaethol), saturating substrate, 300 μM NADH, 0.2 μM GcoAB
Excerpt: For the quantification of formaldehyde (demethylation) or acetaldehyde (de-ethylation) production, the reaction was monitored via UV/vis or fluorescence (in the case of vanillin) using the same set of conditions as outlined above for specific activity determination. After eight minutes, aliquots of the sample were removed and carried onto the respective aldehyde detection assay. For reactions that produced formaldehyde (e.g., all substrates except guaethol), a colorimetric tryptophan assay was used, described previously. Briefly, 200 µL of the reaction was quenched by adding 200 µL of 0.1% tryptophan solution in 50% ethanol, 200 µL 90% sulfuric acid and 40 µL of 1% FeCl3. The solution was then incubated in a heating block for 90 min at 70 °C. After cooling, the absorbance was read at 575 nm and the [formaldehyde] calculated by comparing to a standard curve made with 0–320 µM formaldehyde. A reaction with just the assay components was treated in the same manner as the reaction samples and used as a baseline. Control reactions included everything but GcoA/B, catalase, and substrate. Reported values are the average of ≥3 measurements.
[Acetaldehyde] produced during the dealkylation of guaethol was also determined by using a colorimetric assay and a generated acetaldehyde standard curve. A kit from BioAssays was used. Briefly, 20 µL of the reacted sample was transferred to a 96-well plate and 80 µL of the working reagent, consisting of NAD/MTT and aldehyde dehydrogenase, was added. The reaction was incubated for 30 min at room temperature and the absorbance read at 565 nm. Aldehyde dehydrogenase and NAD react with acetaldehyde to produce acetic acid and NADH. […] Control reactions included samples without substrate and/or aldehyde dehydrogenase. Reported values are the average of ≥3 measurements.

[5] = system: LigM; design: method as in ref 35 (a number printed in a supplementary file, which may have a reference list of its own: not looked up in the article's list); details: 0.076 μM LigM, 5 mM H4-folate, pH 8.0, 30 °C, cited from earlier work
[6] = substrate: CCOc1ccccc1O; test: purified protein, by the assay type; details: other: 0.2 μM GcoAB, 300 μM NADH, pH 7.5, 25 °C, air
[7] = substrate: COc1cccc(O)c1O; test: purified protein, by the assay type; details: other: 0.2 μM GcoAB, 300 μM NADH, pH 7.5, 25 °C, air
[8] = substrate: COc1ccccc1; test: purified protein, by the assay type; details: other: 0.2 μM GcoAB, 300 μM NADH, pH 7.5, 25 °C, air
[9] = substrate: COc1ccccc1C; test: purified protein, by the assay type; details: other: 0.2 μM GcoAB, 300 μM NADH, pH 7.5, 25 °C, air
[10] = substrate: COc1ccccc1O; test: purified protein, by the assay type; details: other: 0.2 μM GcoAB, 300 μM NADH, pH 7.5, 25 °C, air

For `COc1cccc(OC)c1O` [Syringol], the Kd ([1]; 1–6 μM GcoA, 25 °C, 25 mM HEPES, 50 mM NaCl, pH 7.5, read-out: Compound KD) was 2.8 ± 0.4 µM, the “substrate classification with GcoAB” value [2] was “partial substrate, partial uncoupler” and the “Demethylated product: amount produced per NADH consumed” value [3] was 0.21 ± 0.002.

For `COc1cc(C=O)ccc1O` [Vanillin], the Kd [1] was 37 ± 3 µM, the “substrate classification with GcoAB” value [2] was “partial substrate, partial uncoupler” and the “Aldehyde produced per NADH consumed” value [4] was 0.40 ± 0.04. The “Aldehyde produced per NADH consumed” value ([4]; listed as vanillin) was “less than stoichiometric amounts of formaldehyde” and the “Demethylated product: amount produced per NADH consumed” value [3] was 0.20 ± 0.01.

In the case of `COc1cc(/C=C/C(=O)O)ccc1O` [ferulate], the “binding or catalytic interaction with GcoA” value [2] is reported as “no detectable binding or catalytic interaction; also recorded: preclude binding and/or demethylation”.

For `COc1cc(C(=O)O)ccc1O` [vanillate], the “binding or catalytic interaction with GcoA” value [2] is given as “no detectable binding or catalytic interaction; also recorded: preclude binding and/or demethylation”, the Km [5] is given as 630 ± 80 µM and the kcat ([5]; vanillate 0.1-5 mM, 100 mM Tris, air) is given as 5.8 ± 0.25 s⁻¹.

For `COc1ccccc1OC` [veratrole], the “substrate classification with GcoAB” value [2] was “non-substrate/non-binder” and the “binding or catalytic interaction with GcoA” value [2] was “no detectable binding or catalytic interaction”.

B1: GcoAB (Amycolatopsis sp. ATCC 39116) (protein)
chain: MTTTERPDLAWLDEVTMTQLERNPYEVYERLRAEAPLAFVPVLGSYVASTAEVCREVATSPDFEAVITPAGGRTFGHPAIIGVNGDIHADLRSMVEPALQPAEVDRWIDDLVRPIARRYLERFENDGHAELVAQYCEPVSVRSLGDLLGLQEVDSDKLREWFAKLNRSFTNAAVDENGEFANPEGFAEGDQAKAEIRAVVDPLIDKWIEHPDDSAISHWLHDGMPPGQTRDREYIYPTIYVYLLGAMQEPGHGMASTLVGLFSRPEQLEEVVDDPTLIPRAIAEGLRWTSPIWSATARISTKPVTIAGVDLPAGTPVMLSYGSANHDTGKYEAPSQYDLHRPPLPHLAFGAGNHACAGIYFANHVMRIALEELFEAIPNLERDTREGVEFWGWGFRGPTSLHVTWEV
With B1 the Km [6] was 0.015 ± 0.004 mM, the kcat [6] was 1.4 ± 0.09 s⁻¹ and the kcat/Km [6] was 100000 ± 20000 M⁻¹ s⁻¹. For the same molecule, the Km [7] was 0.030 ± 0.003 mM, the kcat [7] was 2.1 ± 0.05 s⁻¹ and the kcat/Km [7] was 75000 ± 7000 M⁻¹ s⁻¹. For the same molecule, the Km [8] was 0.043 ± 0.004 mM, the kcat [8] was 3.5 ± 0.2 s⁻¹ and the kcat/Km [8] was 82000 ± 8000 M⁻¹ s⁻¹. It also gave a Km [9] of 0.027 ± 0.003 mM, a kcat [9] of 4.6 ± 0.1 s⁻¹ and a kcat/Km [9] of 170000 ± 20000 M⁻¹ s⁻¹. For the same molecule, the Km [10] was 0.060 ± 0.01 mM, the kcat [10] was 6.8 ± 0.5 s⁻¹ and the kcat/Km [10] was 110000 ± 20000 M⁻¹ s⁻¹.
